This is an account of results in patent US20240165226A1, “COMBINATION TREATMENT OF CD38-EXPRESSING TUMORS” (GENMAB A/S, priority 2006, published 2024).

Entries after “also recorded” stand apart in the source; their conditions may differ.

The test system of one test is Daudi-luc cells. As to the kind of experiment: Complement-dependent cytotoxicity of Daudi-luc cells. The class given is cell-based. The conditions noted are these: for CDC-mediated lysis of Daudi-luc cells: in words. As to the method:
After harvesting and counting of Daudi-luc cells, the viability of the cells should be ≥90%. After washing (PBS), cells are resuspended at 2.0×10^6 cells/ml in RPMI-B (RPMI supplemented with 1% BSA). Thereafter, cells are put in 96-well round-bottom plates at 1×10^5 cells/well (50 μl/well). Then, 50 μl antibodies is added to the wells (final concentration range between 0-100 μg/ml (three-fold dilutions in RPMI-B)). After incubation (RT, 15 min), 11 μl of pooled human serum (pool of 18 healthy donors) was added to each well (37° ° C., 45 min). Wells were resuspended once and 120 μl was transferred to FACS tubes (Greiner). Then, 10 μl propidium iodide (PI; Sigma-Aldrich Chemie B.V.) was added (10 μg/ml solution) to this suspension. Lysis was detected by flow cytometry (FACScalibur™, Becton Dickinson, San Diego, CA, USA) by measurement of the percentage of dead cells (corresponds to PI-positive cells).

Test [1] concerns tumor cells obtained from different MM patients. The test is described as follows: Complement-dependent cytotoxicity of tumor cells from MM patients. It is filed as cell-based, human. As to conditions: in words.
For another test, the system named is fresh MM tumor cells. The test is described as follows: Binding to fresh multiple myeloma tumor cells by flow cytometry. As to conditions: for binding to MM cells: in words. The arrangement: species or system human. As to the method:
Fresh MM tumor cells were obtained from Dr. Lokhorst (University Medical Center Utrecht, Utrecht, The Netherlands. Tumor cells were isolated from bone marrow of multiple myeloma patients by Ficoll (Bio Whittaker; lymphocyte separation medium, cat 17-829E) gradient centrifugation. After harvesting and counting, MM cells (100,000 cells/well) were resuspended with 25 μl FITC-labeled CD38-specific antibodies and 25 μl CD138. After incubation (4° C., 30 min), cells were washed in PBS-BSA and PE-labeled goat-anti-mouse IgG (1:200; Jackson ImmunoResearch Europe Ltd. Soham, UK) was added. After incubation (4° C., 30 min) and washing of the cells in PBS-BSA, fluorescence was measured by flow cytometry.

The next test has as its system CHO-CD38 cells. The test is described as follows: Complement-dependent cytotoxicity of CHO-CD38 cells. It is filed as cell-based. The conditions noted are these: for CDC-mediated lysis of CHO-CD38 cells: in words.
The test system of a further test is PBMCs. As to the kind of experiment: Induction of release of IFN-γ by PBMC. As to conditions: 20 μg/ml antibody and 1 μg/ml OKT-3, 9 donors. The class given is cell-based, human. Here is the method:
-003, -005 and -024 were tested in an assay as described in Ausiello et al., Tissue antigens 56, 538-547 (2000). Briefly, PBMCs were cultured at 1×10^6 cells/well in 48-well plates in the presence of 20 μg/ml of antibodies and 1 μg/ml OKT-3 (Sanquin, Amsterdam, The Netherlands) in 500 μl RPMI^++. After an O/N incubation at 37° C., supernatant was harvested and stored at −20° C. The IFN-γ concentration was assessed by ELISA (IFN-γ ELISA kit, U-CyTech Biosciences, Utrecht, The Netherlands) according to the manufacturer's instructions. Data are shown mean concentration in pg/ml (±SEM) from 9 donors.

Test [2] concerns the target T1, CD38-transfected CHO (CHO-CD38) cells (Homo sapiens, UniProt P28907).
T1 construct: expressed in transfected cells; host or cells: CHO cells
The test is described as follows: Binding to CD38-transfected CHO cells by flow cytometry. The conditions noted are these: for binding to CHO-CD38 cells: in words. As to the method:
After harvesting and counting, Daudi-luc cells, CHO cells transfected with CD38 and control CHO cells were resuspended in PBS (1×10^6 cells/ml). Then, cells were put in 96-well V-bottom plates (100 μl/well) and washed twice in PBS-BSA (PBS supplemented with 0.1% BSA and 0.02% Na-azide). Thereafter, 50 μl antibody solution in PBS-BSA was added to the cells (4° C., 30 min). After washing three times in PBS-BSA, 50 μl (1:400 dilution) of rabbit anti-human IgG-FITC in PBS-BSA was added (4° C. in the dark, 30 min). Cells were washed three times and specific binding of CD38-antibodies to CHO-CD38 and Daudi-luc cells was detected by flow cytometry. HuMab-KLH (a human monoclonal antibody against KLH (keyhole limpet haemocyanin) generated by Genmab B.V., Utrecht, The Netherlands by use of the immunization protocols described elsewhere herein) was used as a control. […] No binding to control CHO cells is observed (data not shown).
For orientation: A flow cytometer gives signals particle by particle.

Test [3] concerns the target T2, His-tagged extracellular domain of human CD38 (Homo sapiens, UniProt P28907).
T2 construct: poly-His-tag (N); made in house; secreted into culture supernatant
As to the kind of experiment: Enzymatic activity of recombinant CD38 (cGDPR production). It is filed as biochemical. The conditions noted are these: for cGDPribose production / reduced production of cGDPR: after 90 minutes; for inhibitory effect on the production of cGDPR: recombinant His-CD38. As to the method:
The enzymatic activity of human CD38 was measured in an assay essentially as described in Graeff et al., J. Biol. Chem. 269, 30260-30267 (1994). Briefly, substrate NGD^+ (80 μM) was incubated with CD38 (0.6 μg/ml His-tagged extracellular domain of human CD38, see Example 3 regarding purification of His-CD38) in a buffer containing 20 mM Tris-HCl, pH 7.0. The production of cGDPR can be monitored spectrophotometrically at the emission wavelength of 410 nm (excitation at 300 nm). In this example an excitation filter of 340±60 nm and an emission filter of 430±8 nm was used.
To test the effect of -003, -005 and -024 on the enzymatic activity of CD38, recombinant His-CD38 protein was pre-incubated for 15 min at room temperature with various concentrations (30, 3, 0.3 and 0.03 μg/ml) of the different antibodies before adding the substrate NGD^+. The production of cyclic GDP-ribose (cGDPR) was recorded at different time points after addition of […] (3, 6, 9, 12, 30, 45, 60, 75 and 90 min).

The mark [4] stands for this setting: CDC, Daudi-luc cells (n = 2), Table 10.
Where [5] appears, read: CDC, CHO-CD38 cells (n = 2), Table 10.

In the case of “-005: human monoclonal IgG1 anti-CD38 antibody, VL region SEQ ID No:12 and VH region SEQ ID No:17”, the maximum lysis with Daudi-luc cells (CDC) was around 60%. Besides, the “maximal lysis compared to TH3079” value with Daudi-luc cells (CDC of Daudi-luciferase cells) was 2-3 times higher. Also, the “% Max. lysis” value with Daudi-luc cells (setting [4]) is 70.5 ± 7.78%; in the test on CHO-CD38 cells (setting [5]) it was 76.5 ± 3.54%. Moreover, the EC50 (as a rule, the concentration at which the effect is half-maximal) in the test with Daudi-luc cells (setting [4]) was 0.39 ± 0.00 µg/mL; with CHO-CD38 cells (setting [5]), 0.15 ± 0.007 µg/mL. In the test on Daudi-luc cells (CDC, Table 3), the “EC50 Daudi-luc” value was found to be 0.33 µg/mL. The “CDC-mediated lysis of Daudi-luc cells” value with Daudi-luc cells was “lysis of Daudi-luc cells is induced”. Besides, in test [1], the “CDC-mediated lysis of MM patient tumor cells” value is “CDC-mediated lysis is observed”. In the test on fresh MM tumor cells (binding, flow cytometry), the “EC50 MM cells” value was 0.04 µg/mL. In addition, the “binding to MM cells” value with fresh MM tumor cells is reported as “bind”. In the test with CHO-CD38 cells (CDC, Table 3), the “EC50 CD38-CHO” value is 0.14 µg/mL. Moreover, in the test with CHO-CD38 cells, the “CDC-mediated lysis of CHO-CD38 cells” value is “lysis is induced; also recorded: induce CDC-mediated lysis”. For the same molecule, the “release of IFN-γ” value in the test on PBMCs is given as “does not induce release of detectable IFN-γ levels”. The “EC50 CHO-CD38” value in test [2] (binding, flow cytometry) was found to be 0.23 µg/mL. Besides, in test [2], the “binding to CHO-CD38 cells” value was “bind”. Also, the cGDPribose production in test [3] (0.03 μg/ml antibody) is listed as 102 % of NGD control; in test [3] (0.3 μg/ml antibody), 98 % of NGD control; in test [3] (3 μg/ml antibody), 66 % of NGD control; in test [3] (30 μg/ml antibody), 68 % of NGD control. The “reduced production of cGDPR” value in test [3] (3 μg/ml) stood at 34%; in test [3] (30 μg/ml) it was 32%. In test [3], the “inhibitory effect on the production of cGDPR” value is recorded as “pronounced inhibitory effect”.

B1: -024: human monoclonal IgG1 anti-CD38 antibody, VL region SEQ ID No:22 and VH region SEQ ID No:27 (antibody, listed as Homo sapiens, V domains shown)
VH: EVQLVQSGAEVKKPGESLKISCKGSGYSFSNYWIGWVRQMPGKGLEWMGIIYPHDSDARYSPSFQGQVTFSADKSISTAYLQWSSLKASDTAMYYCARHVGWGSRYWYFDLWGRGTLVTVSS
VL: EIVLTQSPATLSLSPGERATLSCRASQSVSSYLAWYQQKPGQAPGLLIYDASNRASGIPARFSGSGSGTDFTLTISSLEPEDFAVYYCQQRSNWPLTFGGGTKVEIK
Turning to B1, the “CDC-mediated lysis of Daudi-luc cells” value in the test on Daudi-luc cells was “does not induce CDC”. Also, the “CDC-mediated lysis of MM patient tumor cells” value in test [1] is “induced lysis”. Further, in the test on fresh MM tumor cells, the “binding to MM cells” value is given as “bind”. For the same molecule, the “CDC-mediated lysis of CHO-CD38 cells” value with CHO-CD38 cells is recorded as “lysis is induced”. Further, the “release of IFN-γ” value in the test on PBMCs is reported as “did not induce release of significant IFN-γ levels”. Moreover, the “binding to CHO-CD38 cells” value in test [2] is “bind”. The cGDPribose production in test [3] (0.03 μg/ml antibody) is 105 % of NGD control; in test [3] (0.3 μg/ml antibody), 104 % of NGD control; in test [3] (3 μg/ml antibody), 100 % of NGD control; in test [3] (30 μg/ml antibody), 99 % of NGD control. Moreover, the “inhibitory effect on the production of cGDPR” value in test [3] was “No inhibitory effect”.
